The source of these data is PMC12376665.

This assay has as its target SlAVT6A (split-ubiquitin bait fusion) (tomato (Solanum lycopersicum)).

Chain of SlAVT6A (split-ubiquitin bait fusion) (tomato (Solanum lycopersicum)) (main, as listed by the source): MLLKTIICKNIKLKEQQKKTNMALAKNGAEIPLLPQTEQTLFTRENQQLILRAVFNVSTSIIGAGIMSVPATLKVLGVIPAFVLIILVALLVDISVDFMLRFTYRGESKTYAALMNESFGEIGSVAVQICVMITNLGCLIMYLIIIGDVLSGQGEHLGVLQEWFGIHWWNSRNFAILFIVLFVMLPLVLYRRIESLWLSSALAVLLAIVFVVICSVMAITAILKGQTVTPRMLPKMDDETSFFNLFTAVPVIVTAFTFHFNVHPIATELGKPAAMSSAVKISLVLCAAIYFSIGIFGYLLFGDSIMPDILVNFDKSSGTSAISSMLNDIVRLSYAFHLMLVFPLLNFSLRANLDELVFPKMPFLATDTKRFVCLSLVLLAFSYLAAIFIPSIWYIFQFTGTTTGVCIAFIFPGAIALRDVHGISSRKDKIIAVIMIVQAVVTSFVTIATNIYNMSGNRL

“SlAVT6B (split-ubiquitin prey fusion) (from UniProt A0A3Q7FT69 1-472) (natural protein)” gave an amino acid content in the liquid culture of yeast co-expressing SlAVT6A and SlAVT6B, relative to SlAVT6A expressed alone of 21.8%; an efflux activity for amino acids in yeast co-expressing SlAVT6A and SlAVT6B, compared to only SlAVT6A expressing of 65%.
